Reference: the supplement of paper PMC10126150
± gives the standard deviation of the averaged measurements.

Tested on: ATP
Assay: switch fluorescence ratio, 500 uM ATP over buffer (Cy3 cluster intensity, sum of 5 cycles each) (fold (ratio)); higher = stronger signal-on switching upon ATP binding; sequences stand for … in TCGTCGGCAGCGTCAGATGTGTATAAGAGACAGTTTTTTTTTTTTTTTTTTTTTTTTT…TC
Settings: aptamer strand: ATP DNA aptamer (quencher-CACCTGGGGGAGTATTGCGGAGGAAGG + anchor), 100 nM annealed; ATP concentration: 500 uM
Method in brief: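 Per cluster, summed Cy3 intensity from the target cycles was divided by that from the buffer cycles to give the fluorescence ratio, then averaged per switch-domain sequence. Clusters outside 100-1000 RFU were excluded. The Cy3-labelled switching-strand clusters, on a modified Illumina MiSeq flow-cell, were annealed to 100 nM quencher-labelled ATP aptamer and imaged in selection buffer, then after 15 min with 500 uM ATP at 22 °C, for five cycles with NaOH stripping and re-annealing between them.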
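Further: ATP exposure 15 min at 22 °C before imaging.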

| Sequence | switch fluorescence ratio |
| --- | --- |
| GGTTCTACAT | 0.998 ± 0.03 |
| GGTTCTGTGG | 1.03 ± 0.0094 |
| GGTTCTGTGT | 0.99 ± 0.012 |
| GGTTGAAGTT | 0.986 ± 0.0077 |
| GGTTGAATGT | 0.9843 ± 0.0074 |
| GGTTGAATTA | 0.979 ± 0.051 |
| GGTTGACATA | 1.01 ± 0.025 |
| GGTTGACCTG | 1 ± 0.032 |
| GGTTGAGTGT | 0.9836 ± 0.0046 |
| GGTTGATGAT | 0.975 ± 0.033 |
| GGTTGATGTT | 0.969 ± 0.059 |
| GGTTGATTAT | 0.9793 ± 0.0065 |
| GGTTGCACAG | 1.005 ± 0.0043 |
| GGTTGCAGTC | 0.946 ± 0.025 |
| GGTTGCGTTT | 0.9997 ± 0.001 |
| GGTTGCTCGT | 1.008 ± 0.0092 |
| GGTTGGAAGG | 0.9761 ± 0.0047 |
| GGTTGGATCG | 0.9987 ± 0.0047 |
| GGTTGGCAGG | 1 ± 0.038 |
| GGTTGGCGGG | 1.07 ± 0.021 |
| GGTTGGCGTT | 0.961 ± 0.03 |
| GGTTGGCTTT | 1.01 ± 0.069 |
| GGTTGGGACT | 0.994 ± 0.028 |
| GGTTGGGGAT | 0.979 ± 0.016 |
| GGTTGGGGTG | 1.01 ± 0.037 |

| Sequence | switch fluorescence ratio |
| --- | --- |
| GGTTGGTTGG | 0.9769 ± 0.0012 |
| GGTTGTCTCG | 0.951 ± 0.021 |
| GGTTGTGACG | 1 ± 0.08 |
| GGTTGTGTGT | 1 ± 0.005 |
| GGTTGTGTTT | 0.991 ± 0.003 |
| GGTTGTTGTT | 0.978 ± 0.029 |
| GGTTGTTTTT | 1.01 ± 0.032 |
| GGTTTAAGAA | 1.02 ± 0.023 |
| GGTTTACGTC | 0.9998 ± 0.0082 |
| GGTTTACTTC | 0.9967 ± 0.0016 |
| GGTTTAGGTT | 1.01 ± 0.029 |
| GGTTTAGTGA | 0.998 ± 0.034 |
| GGTTTATATT | 1.01 ± 0.05 |
| GGTTTATGAA | 0.999 ± 0.018 |
| GGTTTATTAA | 0.983 ± 0.011 |
| GGTTTCAGAT | 0.975 ± 0.016 |
| GGTTTCATAG | 0.976 ± 0.013 |
| GGTTTCGCGC | 1.01 ± 0.013 |
| GGTTTCGGAA | 1 ± 0.034 |
| GGTTTCGGGC | 1.03 ± 0.044 |
| GGTTTCGGGT | 0.984 ± 0.0011 |
| GGTTTCTCGT | 0.967 ± 0.04 |
| GGTTTCTGCT | 1.02 ± 0.03 |
| GGTTTGACTA | 0.9857 ± 0.0066 |
| GGTTTGGTAG | 0.9873 ± 0.0029 |

| Sequence | switch fluorescence ratio |
| --- | --- |
| GGTTTGTAAC | 0.978 ± 0.029 |
| GGTTTGTTAT | 1 ± 0.014 |
| GGTTTTCCGG | 1.01 ± 0.046 |
| GGTTTTCGGC | 0.9771 ± 0.0087 |
| GGTTTTCTCA | 1.002 ± 0.008 |
| GGTTTTGCTT | 0.96 ± 0.034 |
| GGTTTTGTAT | 0.993 ± 0.024 |
| GGTTTTTAAT | 0.985 ± 0.031 |
| GGTTTTTACG | 0.985 ± 0.061 |
| GGTTTTTGCG | 1.0217 ± 0.0008 |
| GGTTTTTTAG | 0.996 ± 0.021 |
| GGTTTTTTGC | 1.01 ± 0.04 |
| GTAAAAACTC | 1.03 ± 0.024 |
| GTAAACGGTA | 1.08 ± 0.064 |
| GTAAACGGTG | 0.979 ± 0.032 |
| GTAAATAGCT | 1.02 ± 0.073 |
| GTAAATAGGC | 0.993 ± 0.023 |
| GTAAATAGTC | 1.03 ± 0.065 |
| GTAAATGGGG | 0.975 ± 0.011 |
| GTAACAGGGT | 0.999 ± 0.023 |
| GTAACCCCGG | 1.07 ± 0.025 |
| GTAACGGCCG | 1.16 ± 0.18 |
| GTAACGGGGA | 0.995 ± 0.072 |
| GTAACGGGGC | 0.982 ± 0.049 |
| GTAACTAGAG | 0.997 ± 0.033 |

| Sequence | switch fluorescence ratio |
| --- | --- |
| GTAAGATTAT | 0.985 ± 0.067 |
| GTAAGGAGGT | 0.976 ± 0.023 |
| GTAAGTAAAA | 1.03 ± 0.089 |
| GTAAGTATGT | 1.01 ± 0.011 |
| GTAAGTGAAG | 1.05 ± 0.014 |
| GTAATAAGAG | 1.004 ± 0.0063 |
| GTAATAAGGT | 1.02 ± 0.023 |
| GTAATACCAA | 1.03 ± 0.058 |
| GTAATATTAA | 1.0073 ± 0.00065 |
| GTAATGAGCG | 0.998 ± 0.044 |
| GTAATGCTTA | 1.011 ± 0.005 |
| GTAATGGGGG | 1.09 ± 0.071 |
| GTAATTCGGG | 0.9809 ± 0.0073 |
| GTAATTGCGG | 0.9765 ± 0.0056 |
| GTAATTTGGG | 0.982 ± 0.019 |
| GTAATTTTTC | 1.01 ± 0.053 |
| GTACGGGAAG | 1.19 ± 0.1 |
| GTACTCGGGG | 0.9991 ± 0.0074 |
| GTAGAAAGTT | 0.984 ± 0.0028 |
| GTAGAGAACT | 1 ± 0.021 |
| GTAGCTCCTG | 0.995 ± 0.056 |
| GTAGGAATGT | 1.03 ± 0.036 |
| GTAGGACCTA | 1.01 ± 0.018 |
| GTAGGCAAAT | 1.029 ± 0.003 |
| GTAGGCAAGA | 1.03 ± 0.071 |
